From the supplement of paper PMC10567573

B1: RSPH3 (parent)
chain: VDVQTELYLEEIADRIIEVDMECQ
B2: ZBTB22 (parent)
chain: HTGLKPYECGVCAKKFMWRDSFMR

Variants of: B1
Assay: protein stability index of a GFP-peptide fusion (GPS, HEK-293T) (PSI 1-6); higher = more stable
Conditions: c terminus: a fixed tail appended
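Note: lentivirally expressed fusions sorted by FACS into six bins by GFP to DsRed ratio, PSI derived from sequencing read proportions per bin multiplied by bin number.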

Protein stability index: each site, then its substitutions
V3: K 2.7, L 3.01, N 2.99, C 2.35, G 3.74, H 2.4, Y 1.85, R 3.38, P 3.36, M 2.26, W 2.14, D 2.66, E 2.66, T 2.92, Q 3.04, S 2.56, A 3.22
T5: Y 3.42, C 1.75, S 2.5, D 3.17, Q 2.52, K 3.87, P 3.27, M 2.38, F 2.96, G 2.46, H 2.42, R 3.09, E 3.08, A 2.3, N 3.23
E6: A 1.73, H 2.19, F 1.64, C 1.57, G 3.25, D 2.03
Q4: G 3.62, H 3.22, D 1.45, F 3.48, T 2.47, Y 1.66, E 2.32, P 2.39, W 2.27, M 2.07, S 2.7, V 3.19, A 2.19, K 2.43, C 2.29, N 1.85, L 1.97
V1: D 3.3, T 3.75, P 3.11, H 3.24, M 2.39, N 3.75, A 3.1, E 3.11, Q 3.25, K 2.79, S 3.88, I 1.64, R 2.57, G 2.86, F 1.55, Y 1.94, W 2.44, C 2.36, L 1.72
D2: P 3.08, N 2.17, L 2.6, G 1.81, K 1.91, S 1.81, Q 1.72, E 2.51, C 2.57, I 2.61, T 2.39, R 1.76, Y 3.84, M 3.88, A 1.63

Variants of: B2
Assay: as above
Conditions: c terminus: a fixed tail appended

Protein stability index of substitutions, site by site:
F22: D 3.47, N 1.49, C 2.21, Y 1.89, W 1.53, A 1.79, T 1.74, Q 3.48, S 1.66, H 1.45, K 2.54, E 3.96, L 2.46, R 1.56, P 2.07
R19: W 1.77, Y 2.06
S21: R 1.08, Q 1.83, I 2.32, T 1.73, E 1.78, A 2.23, L 3.24, H 2.26, Y 2.58, N 1.49, P 3.07, V 2.1, G 2.9, F 1.98, W 2.84
R24: I 1.79, N 3.03, D 1.37, T 3.9, H 3.35, V 2.82, K 1.71, S 2.96, G 1.87, W 1.67, Q 1.6, M 3.19, C 2.94, L 3.44, F 2.3
D20: Q 1.74, P 1.72, G 3.52, Y 2.74, C 3.48, I 2.1, V 1.69, A 2.16, L 2.27, F 2.08, S 2.08, K 3.45, N 2.48, H 2.65
M23: F 2.41, I 1.88, H 2.79, K 1.92, S 2.46, N 2.22, L 1.85, P 2.28, R 2.64, V 1.96, A 3.12, T 2.71, Q 3.15, G 1.69, W 2.22, Y 2.82, E 4.04
